{"source": "patent US10029000B2", "about": "“Uses of IL-12 in hematopoiesis” (University of Southern California, priority 2003, dated 2018)", "molecules": {"B1": {"name": "IL-12: Recombinant murine interleukin 12, heterodimeric cytokine (p35+p40), purchased from R&D Systems or PeproTech (protein, UniProt P43431 23-215; P43432 23-335, looked up)", "Interleukin-12 subunit alpha": "RVIPVSGPARCLSQSRNLLKTTDDMVKTAREKLKHYSCTAEDIDHEDITRDQTSTLKTCLPLELHKNESCLATRETSSTTRGSCLPPQKTSLMMTLCLGSIYEDLKMYQTEFQAINAALQNHNHQQIILDKGMLVAIDELMQSLNHNGETLRQKPPVGEADPYRVKMKLCILLHAFSTRVVTINRVMGYLSSA", "Interleukin-12 subunit beta": "MWELEKDVYVVEVDWTPDAPGETVNLTCDTPEEDDITWTSDQRHGVIGSGKTLTITVKEFLDAGQYTCHKGGETLSHSHLLLHKKENGIWSTEILKNFKNKTFLKCEAPNYSGRFTCSWLVQRNMDLKFNIKSSSSSPDSRAVTCGMASLSAEKVTLDQRDYEKYSVSCQEDVTCPTAEETLPIELALEARQQNKYENYSTSFFIRDIIKPDPPKNLQMKPLKNSQVEVSWEYPDSWSTPHSYFSLKFFVRIQRKKEKMKETEEGCNQKGAFLVEKTSTEVQCKGGNVCVQAQDRYYNSSCSKWACVPCRVRS"}}, "key": {"[1]": {"test_system": "Sca-1+ cells", "test": "Annexin V / Sca-1 detection after lethal dose radiation (apoptosis)", "format": "in vivo, mice", "conditions": "IL-12 24 hours before 10 Gy, 7 hours post radiation", "experimental": "IL-12 administration protects Annexin V^−/Sca-1^+ cells (H4) from radiation induced apoptosis, where the Sca-1^+ positive cells are indicative of the presence of hematopoietic repopulating cell or hematopoietic stem cells and Annexin V negative cells are indicative of the functional bone marrow cells.\nA study was conducted to assess whether IL-12 administration protects Sca-1+ cells from radiation induced apoptosis. The Sca-1+ is a marker for hematopoietic repopulating cell or stem/progenitor cells. 24 hours post IL-12 administration, mice received lethal dose radiation (10 Gy). 7 hours post radiation, mice were sacrificed and bone marrow cells were isolated to detect Annexin V (an indication of cell apoptosis) and Sca-1 antigen (stem cell marker)."}, "[2]": {"test_system": "long-term repopulating HSC", "test": "Secondary bone marrow transplantation of IL-12 rescued marrow", "format": "in vivo, mice (Ly5.2 donor, Ly5.1 recipient)", "conditions": "donor derived T/B and M/G cells detected", "source_text": "FIG. 5D-F: Secondary bone marrow transplantation was employed to detect if IL-12 can protect long-term repopulating HSC. Six month after lethal dose radiation and IL-12 rescue, bone marrow cells from these mice (Ly 5.2) were isolated and transplanted to secondary lethally irradiated mice (Ly 5.1). Four months after transplantation, donor cells (Ly5.2) were examined in recipient's peripheral blood.\nThe following gives some further experimental details. Six months after the rescue from lethal dose radiation (IL-12 treated mice, C57BL/Ly5.2), whole bone marrow cells were isolated and 1×10^6 cells were transplanted to secondary lethally irradiated mice (C57BL/Ly5.1). 4 months after transplantation, blood cells were collected and stained with anti-Ly5.2 and anti-Mac-1/anti-Gr-lantibodies (5D), and anti-Ly5.2 and anti-CD3/anti-B220 antibodies (5E) and anti-Ly5.2 antibody (5F). […]\nLy5.2 strain mice rescued by IL-112 treatment before or after lethal irradiation were sacrificed after 6 months. […] 4 months after the transplantation, peripheral blood cells were analyzed for Ly5.2 cells (anti-Ly5.2 antibody conjugated with FITC) with T cell and B cell markers (anti-CD3 and anti-B220 antibody conjugated with PE) and with macrophage and granulocyte cell markers (anti-CD11b and anti-Gr1 antibody conjugated with PE) using FACS. […]"}, "[3]": {"test_system": "bone marrow progenitor cells", "test": "Colony forming cell assay (CFC assay) of bone marrow after lethal irradiation", "format": "in vivo, mice", "experimental": "To determine the bone marrow cell subsets that are protected by IL-12 administration for the rescue phenomena, CFC and CFU-S12 assay were performed at different time post lethal dose radiation. Bone marrow cells were recovered from IL-12 treated or control animals immediately (day 0), or at day 7, 9, 10, 12, 14 and 21 post radiation for CFC and CFU-S12 assay. If progenitor cells are protected from IL-12 treatment (IL-12 was administered in this study at 24 hours before radiation), CFC and CFU-S12 colonies should be detected when cells were removed at day 0. However, bone marrow cells isolated at day 0, 7 post radiation give rise no CFC nor CFU-S12 colonies in both IL-12 treated and control animals. At day 10 post radiation, the bone marrow cells isolated from IL-12 treated mice start to give rise of CFU-S12 but no detectable CFC, which start to appear from IL-112 treated bone marrow isolated 12 days post radiation and fully recovered from bone marrow cells isolated 14 days post radiation, as shown in FIGS. 5A and 5B. […] The CFU-S12 colony forming cells and CFC cells at day 10 and day 14 post radiation may be derived from long-term repopulating stem cells rescued by IL-12 treatment.\nFIG. 5A: Isolated bone marrow cells were plated in methycellulose plates for 12 days to detect colony formation. Bone marrow cells from normal mice were used as control for the assay system. […] In contract, there is no recovery of CFC cell activity from control mice bone marrow cells.\n24 hours before lethal irradiation, mice were i.v. treated with IL-12 (100 ng/mouse) and bone marrow cells were isolated from these mice at different days after lethal irradiation. For CFU assay, 2×10^5 bone marrow cells were thoroughly mixed into 1 ml methylcellulose medium MethCult GF M3434 from StemCell Technologies Inc (Vancouver, BC) and cultured into 35 mm dishes. Each sample was duplicated. After 12 days culture, colonies (>50 cells) were counted under microscope."}, "[4]": {"test_system": "peripheral blood cells", "test": "Blood cell recovery after chemotherapeutic drug Cytoxan", "format": "in vivo, mice", "conditions": "Cytoxan 300 mg/kg, IL-12 36 hrs before or 12 hrs after, n=5", "experimental": "FIG. 9A: white blood cell; FIG. 9B: red blood cell; FIG. 9C: platelet; FIG. 9D: lymphocyte; FIG. 9E: monocyte; FIG. 9F: neutrophile. Cytoxan is name for cyclophosphamide.\nA study was conducted to determine whether IL-12 administration promotes multi-lineage blood cell recovery when used in conjunction with a chemotherapeutic drug. In this example, use of IL-12 is as an adjuvant or ancillary therapy to the primary therapy of chemotherapy. IL-12 was administrated at different time (36 hrs before or 12 hrs after chemotherapy). Mice in this study received a relatively high dose of chemotherapeutic drug Cytoxan (e.g., 300 mg/kg). At different time post-cytoxan treatment, peripheral blood was collected via tail vein for blood cell count study. (Mascot). FIG. 9A white blood cell count; B: red blood cell count; C: platelet count."}}, "note": "Several values for one entry are separate records, joined by “and”; a condition that tells them apart may be missing. Equal entries are not always repeated."}
{"molecule": "B1", "values": [{"measurement": "AnnexinV-/Sca-1+ cells in whole bone marrow", "setting": "[1]; control 9.7±1.5%, p<0.01", "value": "19.2±3.7% and 19.2±2.3%"}, {"measurement": "proportion of AnnexinV-/Sca-1+ cells in total Sca-1+ cells", "setting": "[1]; control 44±5%, p<0.05", "value": "54±5", "unit": "%"}, {"measurement": "protection of long-term repopulating cells", "setting": "[2]", "value": "protects long-term repopulating cells"}, {"measurement": "CFC activity", "setting": "[3]; day 12 post lethal radiation", "value": "low level CFC cell activity"}, {"measurement": "CFC activity", "setting": "[3]; first 9 days post lethal radiation, IL-12 24 hours before radiation", "value": "no detectable CFC activity"}, {"measurement": "time of full recovery of CFC activity", "setting": "[3]; lethal radiation, IL-12 24 hours before radiation", "value": "about 14 days post radiation"}, {"measurement": "blood cell recovery versus control", "setting": "[4]", "value": "better blood cell recovery"}]}
